According to US20040110688:

Legend:
[1] = biological target: T1, factor VIIIa, P00451
T1 chain: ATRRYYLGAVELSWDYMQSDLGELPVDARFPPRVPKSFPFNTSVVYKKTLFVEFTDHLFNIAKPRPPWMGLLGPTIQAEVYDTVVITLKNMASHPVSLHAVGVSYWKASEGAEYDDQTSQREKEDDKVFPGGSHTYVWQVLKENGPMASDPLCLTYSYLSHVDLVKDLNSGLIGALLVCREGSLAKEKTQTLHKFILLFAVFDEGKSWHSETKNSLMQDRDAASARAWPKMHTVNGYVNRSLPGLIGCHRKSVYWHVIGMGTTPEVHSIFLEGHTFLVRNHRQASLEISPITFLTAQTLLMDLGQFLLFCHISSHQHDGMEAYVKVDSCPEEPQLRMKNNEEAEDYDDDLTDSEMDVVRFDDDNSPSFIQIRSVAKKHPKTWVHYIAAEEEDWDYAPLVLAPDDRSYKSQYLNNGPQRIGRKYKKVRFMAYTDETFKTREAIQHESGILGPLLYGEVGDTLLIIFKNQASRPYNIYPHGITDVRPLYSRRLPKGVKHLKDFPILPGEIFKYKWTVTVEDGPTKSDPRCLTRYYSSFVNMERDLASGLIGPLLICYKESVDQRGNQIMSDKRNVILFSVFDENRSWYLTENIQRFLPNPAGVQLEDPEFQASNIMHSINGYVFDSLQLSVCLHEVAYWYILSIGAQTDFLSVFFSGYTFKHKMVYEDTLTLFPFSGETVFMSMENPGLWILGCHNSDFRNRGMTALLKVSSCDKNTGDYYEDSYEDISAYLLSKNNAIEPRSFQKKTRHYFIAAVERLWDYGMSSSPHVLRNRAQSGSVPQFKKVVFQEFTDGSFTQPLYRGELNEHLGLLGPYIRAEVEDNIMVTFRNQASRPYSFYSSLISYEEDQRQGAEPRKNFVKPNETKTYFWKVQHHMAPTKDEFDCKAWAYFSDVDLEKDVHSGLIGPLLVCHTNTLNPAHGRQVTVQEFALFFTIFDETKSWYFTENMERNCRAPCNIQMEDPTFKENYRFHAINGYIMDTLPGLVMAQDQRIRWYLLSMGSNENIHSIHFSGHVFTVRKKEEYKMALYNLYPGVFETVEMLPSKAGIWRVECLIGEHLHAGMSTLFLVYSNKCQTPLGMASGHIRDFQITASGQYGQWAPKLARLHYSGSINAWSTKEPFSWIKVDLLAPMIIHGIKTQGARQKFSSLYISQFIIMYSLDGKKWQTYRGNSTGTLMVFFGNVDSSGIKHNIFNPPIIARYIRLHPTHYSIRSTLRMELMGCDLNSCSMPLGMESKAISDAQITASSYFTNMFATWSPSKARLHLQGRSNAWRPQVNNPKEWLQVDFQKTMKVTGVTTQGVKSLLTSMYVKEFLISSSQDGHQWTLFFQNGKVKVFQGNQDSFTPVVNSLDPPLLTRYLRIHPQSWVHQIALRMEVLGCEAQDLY

[2] = biological target: factor X, P00742

B1: IXahelixVII (protein)
chain 1: YNSGKLEEFVQGNLERECMEEKCSFEEAREVFENTERTTEFWKQYVDGDQCESNPCLNGGSCKDDINSYECWCPFGFEGKNCELDVTCNIKNGRCEQFCKNSADNKVVCSCTEGYRLAENQKSCEPAVPFPCGRVSVSQTSKLTR
chain 2: VVGGEDAKPGQFPWQVVLNGKVDAFCGGSIVNEKWIVTAAHCVETGVKITVVAGEHNIEETEHTEQKRNVIRIIPHHNYNAAINKYNHDIALLELDEPLVLNSYVTPICIADKEYTNIFLKFGSGYVSGWGRVFHKGRSALVLQYLRVPRLMTQDCLQSTKFTIYNNMFCAGFHEGGRDSCQGDSGGPHVTEVEGTSFLTGIISWGEECAMKGKYGIYTKVSRYVNWIKEKTKLT
- X-activation rate, PL-minus system (14 nM VIIIa, 400 nM X) [1]: NM
- X-activation rate, PL-plus system (70 pM VIIIa, 0.5 nM IXa, 15 nM X) [1]: NM
- rate of factor X activation with phospholipid, factor VIIIa increased from 70 pM to 14 nM [1]: for IXahelixVII it was still not measurable
- rate of factor Xa generation, Ca2+ and phospholipid, no VIIIa (20 nM IXa, 100 nM X) [2]: The rate of factor Xa generation in each case was 0.1 nM/min
